# According to patent US20230049752A1 (University of California, published 2023):
# Numbering of substitutions follows the chain as printed.
# T1: mouse Claudin-6 (CLDN6) (mouse, UniProt Q9Z262 1-219)
# T1 construct: whole, on cells; GFP fusion on engineered HEK293T cells; also called Mouse CLDN6; murine CLDN6
# T1 sequence (looked up): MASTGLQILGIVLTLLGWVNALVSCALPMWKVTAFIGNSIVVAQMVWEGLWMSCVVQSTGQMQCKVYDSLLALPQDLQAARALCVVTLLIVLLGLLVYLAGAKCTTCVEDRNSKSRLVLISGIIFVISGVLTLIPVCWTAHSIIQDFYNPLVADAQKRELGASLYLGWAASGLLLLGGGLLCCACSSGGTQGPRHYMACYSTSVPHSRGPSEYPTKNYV
# T2: Claudin-9 (CLDN9) (human, UniProt O95484 1-217)
# T2 construct: whole, on cells; also called CLDN9-GFP; CLDN9-mGFP
# T2 sequence (looked up): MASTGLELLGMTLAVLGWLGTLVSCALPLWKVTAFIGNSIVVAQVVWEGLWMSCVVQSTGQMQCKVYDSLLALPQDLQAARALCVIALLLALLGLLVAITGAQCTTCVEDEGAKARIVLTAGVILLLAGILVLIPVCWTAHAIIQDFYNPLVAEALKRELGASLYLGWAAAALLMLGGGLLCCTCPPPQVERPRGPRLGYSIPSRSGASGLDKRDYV
# T3: Claudin-4 (CLDN4) (human, UniProt O14493 1-209)
# T3 construct: whole, on cells; also called CLDN4-GFP; CLDN4-mGFP
# T3 sequence (looked up): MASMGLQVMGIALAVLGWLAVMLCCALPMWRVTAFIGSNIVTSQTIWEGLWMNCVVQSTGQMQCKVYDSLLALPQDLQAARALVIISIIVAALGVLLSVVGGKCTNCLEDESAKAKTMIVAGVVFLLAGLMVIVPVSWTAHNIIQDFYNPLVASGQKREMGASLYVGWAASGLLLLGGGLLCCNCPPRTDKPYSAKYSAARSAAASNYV
# B1: AB4 (antibody, V domains shown)
# VH: QVQLQQSGAELARPGASVKMSCKASGYTFTSYTMHWIKQRPGQGQEWIGYINPSSTYTHYIKKFKDKATLTADKSSSTAYMQLRSLTSEDSAVYYCSRGELGGFAYWGQGTLVTVSA
# VL: DVVMTQTPLSLPVSLGDQASISCRSSQSLVHSDGNTYLNWYLQKPGQSPKLLIYKVSNRFSGVPDRFSGSGSGTDFTLKIRRVEAEDLGVYFCSQSTHVPYTFGGGTKLEIK
# notes: full-length IgG (ExpiCHO)
# B2: AB8 (antibody, V domains shown)
# VH: QVQLQQSGAELARPGASVKMSCKASGYTFTTYTMHWLKQRPGQGLEWIGYINPRSGYSNYNQKFKDKATLTADKSSNTAYMQLNTLTSEDSKVYYCSRGELGGFAYWGQGTLVTVSA
# VL: B1 VL with N39Y, R81S
# notes: full-length IgG (ExpiCHO)
# B3: AB10 (antibody, V domains shown)
# VH: QIQLVQSGPALKKPGETVKISCKASGYTFTDYSMHWIKQAPGKGLKWMGWISTETGEPTYADGFKGRFDFSLETSADTAYLSINNLTNEDTATYFCTRGLWSSFAYWGQGTLVTVSA
# VL: B1 VL with S25A, D33N, N39H, Y41F, G73R, R81S, S96I
# notes: full-length IgG (ExpiCHO)
# B4: AB5 (antibody, V domains shown)
# VH: EVQLQQSGPELVKPGASVKMSCKASGYIFTHYIMHWVKQKPGQGLEWIGCINPYNDGTKYNEKFKGKATLTSDKSSSTAYMELSSLTSEDSAVYYCARYYGYPYYSMDYWGQGTSVTVSS
# VL: DVLMTQTPLSLPVSLGDQPSISCRSSQSIVHSNGNTYLDWYLQKPGQSPKLLIYKVSNRFSGVPDRFSGSGSGTDFTLKISRVEAEDLGVYYCFQGSHVPFTFGSGTRLEIK
# notes: full-length IgG (ExpiCHO)
# B5: AB1 (antibody, V domains shown)
# VH: QVQLQQSAAELARPGASVKMSCKASGYTFTTYTMHWVKQRPGQGLEWIGFINPSSGYTDYNQKFKDRTTLTADKSSSTVYMQLSSLTSEDSAVYYCANGDYYVAYWGQGTLVTVSA
# VL: QIVLTQSPAIMSASLGERVTMTCTASSSVSSTYFHWYQQKPGSSPKLWIYSTSNLASGVPRRFSGSASGTSYSLTISSMEAEDAATYYCHQYHRSPLTFGAGTKLELK
# notes: full-length IgG (ExpiCHO)
# B6: AB7 (antibody, V domains shown)
# VH: EVQLQQSGPELVKPGASMKISCKASGYSFTGYTMNWVKQSHGKNLEWIGLINPYNGGTNYNQKFKGKATLTVDKSSSTAYMELLSLTSEDSAVYYCARGVYDYDGFTYWGQGTLVTVSA
# VL: B5 VL with E17D, T32S, F34L, R61A, A67G, L97P, A101S, L107I
# notes: full-length IgG (ExpiCHO)
# B7: AB2 (antibody, V domains shown)
# VH: EVKLEESGGGLVQPGGSMKLSCVASGFTFSDYWMNWVRQSPEKGLEWVAQIRLKSDNYATHYAESVKGRFTISRDDSKRSVYLQMNNLRAEDTGTYYCNDGPPSGCWGQGTTLIVSS
# VL: DIQMTQSPASLSASVGETVTITCRISENIYSYLAWYQQKQGKSPQLLVYNAKILVEGVPSRFSGSGSGTQFSLKINSLQPEDFGNYYCQHHYTVPWTFGGGTKLEIK
# notes: full-length IgG (ExpiCHO)
# B8: AB3 (antibody, V domains shown)
# VH: B7 VH with D31N
# VL: B7 VL
# notes: full-length IgG (ExpiCHO)
# B9: AB12 (antibody, V domains shown)
# VH: EVKLMESGGDLVKPGGSLKLSCAASGFTFSSYAMSWVRQTPEKRLEWVASIRSGGTTYYPDSVKGRFTISRDNARNILYLRMSSLRSEDTAIYYCAKVGGNPYPMDYWGQGTSVTVSS
# VL: DIQMIQSPSSMFASLGDRVSLSCRASQDIGGNLDWYQQKPGGTIKLLIYSTSNLNSGVPSRFSGSGSGSDYSLTITSLESEDFADYYCLQRNAYPLTFGAGTKLELK
# notes: full-length IgG (ExpiCHO)
# B10: AB11 (antibody, V domains shown)
# VH: DVQLVESGGGLVQPRGSRKLSCAASGFTFSSFGMHWVRQAPEKGLEWVAYISSDSRTIYYADTVKGRFTISRDNPTNTLFLQMTSLRSEDTAMYYCARDYGRTYEAYWGQGTLVTVSA
# VL: DIVLTQSPASLAVSLGQRATISCRASKSVSTSGYSYIHWYQQKPGQPPKLLIYLASNLESGVPARFSGSGSGTDFTLNIHPVEEEDAATYYCQHSRELPLTFGAGTKLELK
# notes: full-length IgG (ExpiCHO)
# B11: AB15 (antibody, V domains shown)
# VH: B10 VH
# VL: NIMMTQSPSSLAVSAGEKVTMSCKSSQSVLFSSNQKNYLAWYQQKPGQSPRLLIYWASTRESGVPDRFTGSGSGTDFTLTISNVQAEDLAVYYCHQYLSSRTFGAGTKLELK
# notes: full-length IgG (ExpiCHO)
# B12: AB6 (antibody, V domains shown)
# VH: DVQLQESGPGLVKSSQSLSLTCSVTGYSITSGYYWKWIRQFPGNKLEWMGYISYDGGINYNPSLKNRISITRDTSKNQFFLKLNSVTTEDTAKYYCARFGKGAMDYWGQGTSVTVSS
# VL: AIVMFQSPSSLVVSAGEKVTMSCKSSQSLLNSRTRKNYLAWYQQKPGQSPKLLIYWASTRESGVPDRFTGSGSGTDFTLTISSVQAEDLAVYYCKQSYYLYTFGGGTKLEIK
# notes: full-length IgG (ExpiCHO)
# Legend:
# [1] = target: human Claudin-6 (CLDN6) (human) (UniProt P56747); test: FACS titration of labelled mAb on OVCA429 cells (endogenous CLDN6+)
# [2] = target: CLDN3/4 (endogenous on LS513 or MCF7 cells); test: FACS titration of labelled mAb on LS513 cells (endogenous CLDN3/4+)
# [3] = target: T1, mouse Claudin-6 (CLDN6); test: FACS titration of labelled mAb on HEK293T mouse CLDN6-mGFP cells
# Description: (§1) CLDN6 antibodies were tested from 0.32 nM to 1000 nM (serial dilution 1:5, 6 points) in a 50 μl volume with 150,000 cells system.
# (§2) CLDN6-expressing cells were used in FACS assays to determine the CLDN6 antibody's ability to bind to CLDN6 on the surface of cells and to cross-react with other CLDN family members. HEK293 T cells engineered to express human CLDN6 fused to GFP, mouse CLDN6 fused to GFP, CLDN9-GFP, CLDN4-GFP, or CLDN3-GFP, or GFP alone (without CLDN6) were used as artificial models of CLDN6 expression.
# (§3) For each type of cell tested and for each mAb, cells were detached from the surface of the culture flasks by EDTA (instead of trypsin) in order to protect the cell surface proteins. The detached cells were then incubated with Alexa Fluor®-labeled CLDN6 mAbs for 30 min in the dark on ice at a pre-determined concentration. […] After washing, the cells were read by a BD Accuri™ Flow Cytometer C6 to detect antibody-antigen protein binding in channel FL4H. Each antibody was tested at varied concentrations to establish a dose-fluorescence curve. […] Cross-reactivity data were obtained using a similar methodology, but with cells having a different expression profile for CLDN6, CLDN3, CLDN4 and CLDN9.
# [4] = target: human Claudin-6 (CLDN6) (human) (UniProt P56747); test: FACS titration of labelled mAb on HEK293T-CLDN6-mGFP cells
# [5] = target: human Claudin-6 (CLDN6) (human) (UniProt P56747); test: FACS titration of labelled mAb on ARK2 cells (endogenous CLDN6+)
# [6] = target: CLDN3/4 (endogenous on LS513 or MCF7 cells); test: FACS titration of labelled mAb on MCF7 cells (endogenous CLDN3/4+)
# [7] = target: T2, Claudin-9 (CLDN9); test: FACS titration of labelled mAb on HEK293T CLDN9-mGFP cells
# Description: as §1, §2, §3
# [8] = target: T3, Claudin-4 (CLDN4); test: FACS titration of labelled mAb on HEK293T CLDN4-mGFP cells
# Description: as §1, §2, §3
Binder,EC50 [1] [nM],EC50 [2] [nM],EC50 [3] [nM],EC50 [4] [nM],EC50 [5] [nM],EC50 [6] [nM],EC50 [7] [nM],EC50 [8] [nM]
B1,168,730,≥ 5000,17,48,653,1860,–
B2,1090,1130,≥ 5000,1920,1140,1060,2770,≥ 5000
B3,2470,1950,–,2760,2140,5000,246,–
B4,5,781,11,10,8,1480,25,–
B5,84,5000,72,109,105,5000,2760,–
B6,531,635,1550,579,353,979,1940,2090
B7,912,5000,≥ 5000,182,1360,5000,–,–
B8,1100,5000,2490,604,1650,5000,–,–
B9,2290,2270,–,5000,1300,5000,2470,2090
B10,835,493,2380,1700,363,427,–,2240
B11,5000,5000,≥ 5000,5000,5000,5000,–,≥ 5000
B12,394,133,2220,1430,765,1140,2770,26
